According to article PMC9401620:

T1: RBM46 (mouse, UniProt P86049 1-533)
T1 sequence: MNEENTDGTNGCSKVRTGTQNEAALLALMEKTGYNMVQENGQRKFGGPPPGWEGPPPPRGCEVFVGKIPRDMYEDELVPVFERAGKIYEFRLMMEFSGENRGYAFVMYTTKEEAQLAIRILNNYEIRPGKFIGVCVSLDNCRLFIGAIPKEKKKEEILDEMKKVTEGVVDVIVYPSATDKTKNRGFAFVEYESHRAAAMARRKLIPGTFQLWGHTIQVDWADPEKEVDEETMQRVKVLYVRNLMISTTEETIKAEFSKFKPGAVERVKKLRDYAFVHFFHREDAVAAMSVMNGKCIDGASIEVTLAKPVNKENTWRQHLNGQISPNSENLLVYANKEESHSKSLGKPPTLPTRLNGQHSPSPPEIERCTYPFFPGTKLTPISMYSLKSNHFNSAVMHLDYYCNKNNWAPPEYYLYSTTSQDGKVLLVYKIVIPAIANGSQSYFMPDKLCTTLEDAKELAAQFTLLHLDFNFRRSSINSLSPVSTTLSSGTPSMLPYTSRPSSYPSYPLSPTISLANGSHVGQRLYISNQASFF


Molecular target: T1, RBM46
Experiment: EMSA

Row | Binder | binding result
1 | UUGUGAAACUAAAACCCGAC (ssRNA) [Ccna2 3'UTR RNA probe] | binds
2 | UGUUUGAAACAGGAGUCGCU (ssRNA) [RNA probe without RBM46-binding motif] | no binding
